These results are taken from patent US20070212700A1, “Methods of using and analyzing biological sequence data” (THE BOARD OF REGENTS OF THE UNIVERSITY OF TEXAS SYSTEM, priority 2005, published 2007).

The assay addresses PPxY-containing peptide. The assay can be described thus: isothermal titration calorimetry, ratio of equilibrium dissociation constants (mutant vs wild-type Nedd4.3 WW domain). A general note: ITC needs no label: the signal is the heat of the interaction.

Consider “Nedd4.3 WW domain L3A mutant (from UniProt Q62940 459-492)”, for which the fold effect on peptide binding relative to wild-type was found to be 5.15 fold.
